Results published in the supplement of paper PMC11246515.
± gives the standard deviation of the averaged measurements.

Assay: total protein half-life in vivo (active degradation + dilution); higher = more stable protein
[1] = E. coli NCM3722 delta-clpP delta-lon delta-hslV, growth: N-lim chemostat, doubling time 6 h
[2] = E. coli NCM3722 delta-clpP, growth: N-lim chemostat, doubling time 6 h
[3] = E. coli NCM3722 delta-hslV, growth: N-lim chemostat, doubling time 6 h
[4] = E. coli NCM3722 delta-lon, growth: N-lim chemostat, doubling time 6 h
[5] = E. coli NCM3722 delta-smpB, growth: N-lim chemostat, doubling time 6 h
[6] = wild type E. coli NCM3722, growth: C-lim chemostat, doubling time 3 h
[7] = wild type E. coli NCM3722, growth: C-lim chemostat, doubling time 6 h
[8] = wild type E. coli NCM3722, growth: N-lim chemostat, doubling time 6 h
[9] = wild type E. coli NCM3722, growth: N-lim chemostat, doubling time 12 h
[10] = wild type E. coli NCM3722, growth: P-lim chemostat, doubling time 6 h
[11] = wild type E. coli NCM3722, growth: P-lim chemostat, doubling time 12 h
[12] = wild type E. coli NCM3722, growth: C-lim chemostat, doubling time 12 h

Sequence | total protein half-life in vivo [1] | total protein half-life in vivo [2] | total protein half-life in vivo [3] | total protein half-life in vivo [4] | total protein half-life in vivo [5] | total protein half-life in vivo [6] | total protein half-life in vivo [7] | total protein half-life in vivo [8] | total protein half-life in vivo [9] | total protein half-life in vivo [10] | total protein half-life in vivo [11] | total protein half-life in vivo [12]
MKLAACFLTLLPGFAVAASWTSPGFPAFSEQGTGTFVSHAQLPKGTRPLTLNFDQQCWQPADAIKLNQMLSLQPCSNTPPQWRLFRDGEYTLQIDTRSGTPTLMISIQNAAEPVASLVRECPKWDGLPLTVDVSATFPEGAAVRDYYSQQIAIVKNGQIMLQPAATSNGLLLLERAETDTSAPFDWHNATVYFVLTDRFENGDPSNDQSYGRHKDGMAEIGTFHGGDLRGLTNKLDYLQQLGVNALWISAPFEQIHGWVGGGTKGDFPHYAYHGYYTQDWTNLDANMGNEADLRTLVDSAHQRGIRILFDVVMNHTGYATLADMQEYQFGALYLSGDEVKKSLGERWSDWKPAAGQTWHSFNDYINFSDKTGWDKWWGKNWIRTDIGDYDNPGFDDLTMSLAFLPDIKTESTTASGLPVFYKNKMDTHAKAIDGYTPRDYLTHWLSQWVRDYGIDGFRVDTAKHVELPAWQQLKTEASAALREWKKANPDKALDDKPFWMTGEAWGHGVMQSDYYRHGFDAMINFDYQEQAAKAVDCLAQMDTTWQQMAEKLQGFNVLSYLSSHDTRLFREGGDKAAELLLLAPGAVQIFYGDESSRPFGPTGSDPLQGTRSDMNWQDVSGKSAASVAHWQKISQFRARHPAIGAGKQTTLLLKQGYGFVREHGDDKVLVVWAGQQ | 4.78 ± 0.17 h | 7.23 ± 0.88 h | 4.97 h | 7.45 h | 5.36 ± 0.33 h | 3.262 ± 0.0075 h | 6.26 ± 0.66 h | 5.75 h | 9.72 h | 7.07 h | 9.37 ± 2.8 h | –
MKLFAQGTSLDLSHPHVMGILNVTPDSFSDGGTHNSLIDAVKHANLMINAGATIIDVGGESTRPGAAEVSVEEELQRVIPVVEAIAQRFEVWISVDTSKPEVIRESAKVGAHIINDIRSLSEPGALEAAAETGLPVCLMHMQGNPKTMQEAPKYDDVFAEVNRYFIEQIARCEQAGIAKEKLLLDPGFGFGKNLSHNYSLLARLAEFHHFNLPLLVGMSRKSMIGQLLNVGPSERLSGSLACAVIAAMQGAHIIRVHDVKETVEAMRVVEATLSAKENKRYE [P0AC13] | 4.15 ± 0.55 h | 3.78 ± 0.098 h | 4.96 ± 1.8 h | 4.16 ± 0.19 h | 3.72 ± 0.14 h | 2.881 ± 0.016 h | 4.48 ± 0.86 h | 3.94 ± 0.15 h | 6.23 ± 0.25 h | 5.63 ± 0.14 h | 11.3 ± 0.29 h | –
MKLFYKPGACSLASHITLRESGKDFTLVSVDLMKKRLENGDDYFAVNPKGQVPALLLDDGTLLTEGVAIMQYLADSVPDRQLLAPVNSISRYKTIEWLNYIATELHKGFTPLFRPDTPEEYKPTVRAQLEKKLQYVNEALKDEHWICGQRFTIADAYLFTVLRWAYAVKLNLEGLEHIAAFMQRMAERPEVQDALSAEGLK [P0A9D2] | 4.9 ± 0.3 h | 5.74 ± 1.9 h | 4.81 ± 0.22 h | 6.34 ± 1.4 h | 4.64 ± 0.58 h | 2.84 ± 0.23 h | 5.69 ± 0.32 h | 4.81 ± 0.2 h | 9.9 ± 0.87 h | 5.44 ± 0.29 h | 10.6 ± 0.74 h | 11.6 ± 2.5 h
MKLGFIGLGIMGTPMAINLARAGHQLHVTTIGPVADELLSLGAVSVETARQVTEASDIIFIMVPDTPQVEEVLFGENGCTKASLKGKTIVDMSSISPIETKRFARQVNELGGDYLDAPVSGGEIGAREGTLSIMVGGDEAVFERVKPLFELLGKNITLVGGNGDGQTCKVANQIIVALNIEAVSEALLFASKAGADPVRVRQALMGGFASSRILEVHGERMIKRTFNPGFKIALHQKDLNLALQSAKALALNLPNTATCQELFNTCAANGGSQLDHSALVQALELMANHKLA | 4.94 ± 0.21 h | 3.37 ± 1.2 h | – | 3.23 h | – | – | – | – | – | 2.4 ± 2 h | 2.16 h | –
MKLHHRMLRHFIAASVIVLTSSFLIFELVASDRAMSAYLRYIVQKADSSFLYDKYQNQSIAAHVMRALAAEQSEVSPEQRRAICEAFESANNTHGLNLTAHKYPGLRGTLQTASTDCDTIVEAAALLPAFDQAVEGNRHQDDYGSGLGMAEEKFHYYLDLNDRYVYFYEPVNVEYFAMNNWSFLQSGSIGIDRKDIEKVFTGRTVLSSIYQDQRTKQNVMSLLTPVYVAGQLKGIVLLDINKNNLRNIFYTHDRPLLWRFLNVTLTDTDSGRDIIINQSEDNLFQYVSYVHDLPGGIRVSLSIDILYFITSSWKSVLFWILTALILLNMVRMHFRLYQNVSRENISDAMTGLYNRKILTPELEQRLQKLVQSGSSVMFIAIDMDKLKQINDTLGHQEGDLAITLLAQAIKQSIRKSDYAIRLGGDEFCIILVDSTPQIAAQLPERIEKRLQHIAPQKEIGFSSGIYAMKENDTLHDAYKASDERLYVNKQNKNSRS | 6.76 ± 0.25 h | 6.49 ± 0.48 h | 6.32 ± 0.99 h | 6.49 ± 0.3 h | 5.84 ± 0.39 h | 3.35 ± 0.26 h | – | 6.57 ± 0.21 h | 14.1 ± 0.84 h | 6.25 ± 0.64 h | 12.9 ± 0.26 h | –
MKLIPRSSDISPGIDGICPGPFPPNGFTVLTDAAYGNGDCFGLYWPIGQEHKLPIVCETYHDEWRIVPAFSSIKKFEEWLEVNDDDPHENGISIEDQDFAANLFRVARKCLSTGRLDDALPLLQRATEQLPEVSEYWLALAIQYRRCKKTEAAAQAALNAYLGNWAFGVPDNKVIHLLSQAADVPNFQDDPVIQCIKEQGLDLSFGGTKENNNYPLMQMCVDTYFAQRKPLQALTLLHNYAWIMSSETTAFQERYDFNIDEWRAKFRQLCLEYFGDSRTQFT | 3.49 h | – | 3.01 h | – | 3.03 ± 0.077 h | 2.62 ± 0.22 h | 4.63 ± 0.52 h | 3.47 ± 0.64 h | 5.75 ± 0.36 h | – | 9.99 h | 8.76 h
MKLIRGIHNLSQAPQEGCVLTIGNFDGVHRGHRALLQGLQEEGRKRNLPVMVMLFEPQPLELFATDKAPARLTRLREKLRYLAECGVDYVLCVRFDRRFAALTAQNFISDLLVKHLRVKFLAVGDDFRFGAGREGDFLLLQKAGMEYGFDITSTQTFCEGGVRISSTAVRQALADDNLALAESLLGHPFAISGRVVHGDELGRTIGFPTANVPLRRQVSPVKGVYAVEVLGLGEKPLPGVANIGTRPTVAGIRQQLEVHLLDVAMDLYGRHIQVVLRKKIRNEQRFASLDELKAQIARDELTAREFFGLTKPA [P0AG40] | 4.18 ± 0.72 h | 5.21 ± 0.77 h | 4.54 ± 0.2 h | 5.2 ± 0.77 h | 4.43 ± 0.14 h | 3.15 ± 0.15 h | 5.64 ± 0.3 h | 4.62 ± 0.35 h | 7.426 ± 0.064 h | 5.441 ± 0.05 h | 11.83 ± 0.032 h | 10.5 ± 0.48 h
MKLLIVEDEKKTGEYLTKGLTEAGFVVDLADNGLNGYHLAMTGDYDLIILDIMLPDVNGWDIVRMLRSANKGMPILLLTALGTIEHRVKGLELGADDYLVKPFAFAELLARVRTLLRRGAAVIIESQFQVADLMVDLVSRKVTRSGTRITLTSKEFTLLEFFLRHQGEVLPRSLIASQVWDMNFDSDTNAIDVAVKRLRGKIDNDFEPKLIQTVRGVGYMLEVPDGQ [P0ACZ8] | 5.08 ± 1 h | 4.18 ± 0.13 h | 4.01 ± 0.29 h | 4.738 ± 0.0044 h | 3.77 ± 0.45 h | 2.77 ± 0.42 h | 5.62 ± 0.89 h | 4.53 ± 0.78 h | 7.44 ± 0.99 h | 4.5 ± 0.3 h | 9.01 ± 0.29 h | 8.61 ± 0.84 h
MKLLQRGVALALLTTFTLASETALAYEQDKTYKITVLHTNDHHGHFWRNEYGEYGLAAQKTLVDGIRKEVAAEGGSVLLLSGGDINTGVPESDLQDAEPDFRGMNLVGYDAMAIGNHEFDNPLTVLRQQEKWAKFPLLSANIYQKSTGERLFKPWALFKRQDLKIAVIGLTTDDTAKIGNPEYFTDIEFRKPADEAKLVIQELQQTEKPDIIIAATHMGHYDNGEHGSNAPGDVEMARALPAGSLAMIVGGHSQDPVCMAAENKKQVDYVPGTPCKPDQQNGIWIVQAHEWGKYVGRADFEFRNGEMKMVNYQLIPVNLKKKVTWEDGKSERVLYTPEIAENQQMISLLSPFQNKGKAQLEVKIGETNGRLEGDRDKVRFVQTNMGRLILAAQMDRTGADFAVMSGGGIRDSIEAGDISYKNVLKVQPFGNVVVYADMTGKEVIDYLTAVAQMKPDSGAYPQFANVSFVAKDGKLNDLKIKGEPVDPAKTYRMATLNFNATGGDGYPRLDNKPGYVNTGFIDAEVLKAYIQKSSPLDVSVYEPKGEVSWQ | 5.52 ± 0.41 h | 5.69 ± 0.46 h | 6.306 ± 0.01 h | 6.44 ± 0.24 h | 5.9 ± 0.07 h | 3.091 ± 0.03 h | 6.01 ± 0.52 h | 6.62 ± 0.42 h | 12.4 ± 1.3 h | 5.21 ± 0.21 h | 11.2 ± 0.18 h | 12.9 ± 0.35 h
